We go through five molecules from patent WO2023182244A1 (dated 2023).

B1: YGI-1E10 (VHH)
VHH: EVQLVESGGGLVQAGGSLRLSCTAPKSIASFNSVGWYRQAPGKQRELVATITRSRTTNYADSARGRFTISRDNTKNMMFLQMNSLKPEDTAVYYCNARDIVPVFQTYWGQGTRVTVSS
notes: Llama VHH expressed in E. coli from pMEK222 (FLAG tag and His tag), purified on Co resin; also called VHH antibody YGI-1E10; not shown: FLAG tag and His tag from vector pMEK222; not clear whe
B2: YGI-1B6 (VHH)
VHH: EVQLVESGGGLVQAGGSLRLSCAASGRTFSNYFMGWFRQAPGKEREFVAAISWSGGSTYYTDSVKGRFTISRDNAKNTMYLQMNTLKPEDTAVYYCAAEKASLSGPSYGLGLDFSRYDYWGQGTQVTVSS
notes: Llama VHH expressed in E. coli from pMEK222 (FLAG tag and His tag), purified on Co resin; also called VHH antibody YGI-1B6; not shown: FLAG tag and His tag from vector pMEK222; not clear whe
B3: YGI-1C5 (VHH)
VHH: EVQLVESGGGLVQTGGSLRLSCAASGLTFSNYAMGWFRQAPGKEREFVATINWSSSRTIYADSVKGRFTISREDAKNTVYLQMNSLKPEDTAVYYCAAEGGAPRWTTGTRRNDYRYWGQGTQVTVSS
notes: Llama VHH expressed in E. coli from pMEK222 (FLAG tag and His tag), purified on Co resin; also called VHH antibody YGI-1C5; not shown: FLAG tag and His tag from vector pMEK222; not clear whe
B4: YGI-1H3 (VHH)
VHH: EVQLVESGGGLVQAGGSLRLSCVVSGRSFSSLAMGWFRQAPGNQREFVAAISWSGGSSYYGDSVKGRFTISRDDAKNTVYLQMDSLKPEDTADYYCATEIVPKYDTAAYYKSQGAFGSWGQGTQVTVSS
notes: Llama VHH expressed in E. coli from pMEK222 (FLAG tag and His tag), purified on Co resin; also called VHH antibody YGI-1H3; not shown: FLAG tag and His tag from vector pMEK222; not clear whe
B5: YGI-1F4 (VHH)
VHH: EVQLVESGGGLVQAGGSLRLSCGASGRTFSNYAMGWFRQAPGKEREFVAAINWSGDKTDYADSVKGRFTISRDNVKNFVALQMNSLKPEDTAVYYCATEGGFPQFGSNLKRTSFGLWGQGTQVTVSS
notes: Llama VHH expressed in E. coli from pMEK222 (FLAG tag and His tag), purified on Co resin; also called VHH antibody YGI-1F4; not shown: FLAG tag and His tag from vector pMEK222; not clear whe

This experiment addresses T1, HuNoV GII.2 VLP (VP1 of HuNoV GII.2 OSN201926, baculovirus-expressed virus-like particle) (human norovirus GII.2 (OSN201926), …).
T1 construct: VP1 gene cloned from HuNoV GII.2 (OSN201926), expressed by the baculovirus method as a VLP and purified by ultracentrifugation; also called HuNoV GII.2 VP1; HuNoV GII.2 VLP1
T1 chain: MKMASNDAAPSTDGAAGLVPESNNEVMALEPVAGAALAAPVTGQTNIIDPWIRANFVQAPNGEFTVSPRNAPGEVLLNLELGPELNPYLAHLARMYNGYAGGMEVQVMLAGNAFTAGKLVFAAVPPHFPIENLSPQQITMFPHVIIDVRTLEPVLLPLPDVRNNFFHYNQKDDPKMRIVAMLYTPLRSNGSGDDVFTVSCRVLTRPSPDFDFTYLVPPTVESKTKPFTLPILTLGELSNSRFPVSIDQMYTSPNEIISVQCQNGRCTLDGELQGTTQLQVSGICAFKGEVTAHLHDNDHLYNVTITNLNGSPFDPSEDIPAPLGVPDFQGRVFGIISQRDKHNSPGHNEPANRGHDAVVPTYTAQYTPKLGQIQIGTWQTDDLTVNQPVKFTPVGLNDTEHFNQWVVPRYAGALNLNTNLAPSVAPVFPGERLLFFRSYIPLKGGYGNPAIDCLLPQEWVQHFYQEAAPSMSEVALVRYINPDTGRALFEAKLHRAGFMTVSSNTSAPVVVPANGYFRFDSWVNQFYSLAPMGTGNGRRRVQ
Put plainly: ELISA of E. coli periplasm fractions on HuNoV GII.2 VLP; clones selected by binding to the antigen. (In general: An ELISA detects its analyte on a solid surface through an enzyme-linked reagent.)
On to B1, for which the binding result was “binds”. The same measure for B2: “binds”; for B3: “binds”; for B4: “binds”. With B5, the binding result was “binds”.
